Laboratory results published in the supplement of paper PMC12338614.
± gives the uncertainty stated by the source.

B1: library; numbered along this chain (parent)
chain: MEVVDPQQLGMFTEGELMSVGMDTFIHRIDSTEVIYQPRRKRAKLIGKYLMGDLLGEGSYGKVKEVLDSETLCRRAVKILKKKKLRRIPNGEANVKKEIQLLRRLRHKNVIQLVDVLYNEEKQKMYMVMEYCVCGMQEMLDSVPEKRFPVCQAHGYFCQLIDGLEYLHSQGIVHKDIKPGNLLLTTGGTLKISDLGVAEALHPFAADDTCRTSQGSPAFQPPEIANGLDTFSGFKVDIWSAGVTLYNITTGLYPFEGDNIYKLFENIGKGSYAIPGDCGPPLSDLLKGMLEYEPAKRFSIRQIRQHSWFRKKHPPAEAPVPIPPSPDTKDRWRSMTVVPYLEDLHGADEDEDLFDIEDDIIYTQDFTVPGQVPEEEASHNGQRRGLPKAVCMNGTEAAQLSTKSRAEGRAPNPARKACSASSKIRRLSACKQQ

Variants of: B1
Experiment: STK11 functional score (HeLa growth suppression), rescaled enrichment; synonymous median = 1, nonsense median = 0 (normalised score)
Details: with HeLa; variant type: missense
Procedure, shortened: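 In HeLa, Bxb1 integrated POPCode codon-randomised libraries of codon-optimised STK11 at an AAVS1 landing pad; three regions were each transfected three times. Integrants, marked as BFP-negative and mCherry-positive, were FACS-sorted 4–5 days after electroporation and expanded for about two weeks before tiled gDNA amplicons were sequenced on NextSeq (~2 million reads per tile). Each functional score is a post/pre-selection log ratio corrected to wild type, rescaled to the synonymous and nonsense medians, and merged across codons and replicate transfections, with error estimated by bootstrapping.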
In the case of E70V, the STK11 functional score is reported as 1.28 ± 0.39. M289Q showed an STK11 functional score of 0.0869 ± 0.082. Variant I303M has an STK11 functional score of 0.518 ± 0.53. For D30A, the STK11 functional score was 1.7 ± 0.28. Variant I360M has an STK11 functional score of 0.866 ± 0.14. In the case of N119I, the STK11 functional score is reported as 1.51 ± 0.062. For D330R, the STK11 functional score was 1.47 ± 0.25. Q137W showed an STK11 functional score of 1.25 ± 0.087. Variant Q137I has an STK11 functional score of 0.934 ± 0.38. Q137Y gave an STK11 functional score of 0.779 ± 0.3. With Q137E the STK11 functional score was 0.452 ± 0.43. In the case of Q137M, the STK11 functional score is reported as 1.54 ± 0.059. L282Y gave an STK11 functional score of 1.07 ± 0.17. For L282P, the STK11 functional score was 0.541 ± 0.13. Y292S was tested, and the STK11 functional score was 1.28 ± 0.23. With Y292W the STK11 functional score was 0.686 ± 0.12. L45W gave an STK11 functional score of 1.65 ± 0.16. With L45D the STK11 functional score was 1.34 ± 0.11. Variant L113Q has an STK11 functional score of 1.02 ± 0.27. Work on L113R yielded an STK11 functional score of 0.684 ± 0.14. G52S showed an STK11 functional score of 1.53 ± 0.27. G52M gave an STK11 functional score of -0.407 ± 0.21. T402Y showed an STK11 functional score of 1.43 ± 0.37. Work on R40E yielded an STK11 functional score of 1.41 ± 0.47. F264E gave an STK11 functional score of 1.57 ± 0.26. A410Q was tested, and the STK11 functional score was 1.21 ± 0.37. With A410C the STK11 functional score was 1.33 ± 0.13. Variant R425Y has an STK11 functional score of 1.54 ± 0.29. With R425E the STK11 functional score was 1.23 ± 0.47. F309N showed an STK11 functional score of -0.159 ± 0.08. With C134Q the STK11 functional score was 0.746 ± 0.38. C134F showed an STK11 functional score of 0.425 ± 0.078. G215R showed an STK11 functional score of 0.426 ± 0.24. Variant E291C has an STK11 functional score of 1.24 ± 0.24. Variant K312W has an STK11 functional score of 1.53 ± 0.14. K312Q gave an STK11 functional score of 1.58 ± 0.37. G268S showed an STK11 functional score of 1.55 ± 0.18. Work on K262P yielded an STK11 functional score of 1.56 ± 0.25. With K262S the STK11 functional score was 0.994 ± 0.17. With K262H the STK11 functional score was 1.52 ± 0.42. V63D gave an STK11 functional score of -0.044 ± 0.097. For V63G, the STK11 functional score was 0.711 ± 0.21. A43V gave an STK11 functional score of 0.673 ± 0.17. Work on Q364S yielded an STK11 functional score of 1.4 ± 0.19. Work on Q364R yielded an STK11 functional score of 1.1 ± 0.27. For S283N, the STK11 functional score was 1.4 ± 0.29. Work on G381M yielded an STK11 functional score of 1.57 ± 0.29. With K416G the STK11 functional score was 1.55 ± 0.31. With K416M the STK11 functional score was 1.67 ± 0.35. Work on F231T yielded an STK11 functional score of 1.64 ± 0.39. Work on F231C yielded an STK11 functional score of 1.33 ± 0.24. In the case of A205W, the STK11 functional score is reported as 1.7 ± 0.38. Variant N181P has an STK11 functional score of -0.0573 ± 0.11. In the case of N181V, the STK11 functional score is reported as -0.181 ± 0.052. N181M was tested, and the STK11 functional score was -0.246 ± 0.091. V372T was tested, and the STK11 functional score was 1.5 ± 0.21. Variant G251L has an STK11 functional score of -0.144 ± 0.1. For L164W, the STK11 functional score was 0.051 ± 0.1. For E293A, the STK11 functional score was 1.03 ± 0.15. With E293M the STK11 functional score was 0.995 ± 0.14. E293L gave an STK11 functional score of 0.882 ± 0.13. P281G showed an STK11 functional score of 0.787 ± 0.18. G56T gave an STK11 functional score of 0.231 ± 0.097. P221M gave an STK11 functional score of 0.39 ± 0.18. K41P gave an STK11 functional score of 1.58 ± 0.37. K41L showed an STK11 functional score of 1.27 ± 0.24. Q382P was tested, and the STK11 functional score was 1.35 ± 0.33. Q382W gave an STK11 functional score of 1.06 ± 0.094. In the case of R28S, the STK11 functional score is reported as 1.59 ± 0.13. H202T gave an STK11 functional score of 0.925 ± 0.22. P323K gave an STK11 functional score of 1.58 ± 0.15. For L183G, the STK11 functional score was 0.551 ± 0.24. Variant K83T has an STK11 functional score of 0.156 ± 0.58. Work on L67T yielded an STK11 functional score of 0.53 ± 0.095. Variant D355E has an STK11 functional score of 1.02 ± 0.47. For D355W, the STK11 functional score was 1.57 ± 0.17. Work on D68V yielded an STK11 functional score of 0.366 ± 0.1. D68A gave an STK11 functional score of 0.846 ± 0.48. In the case of I172P, the STK11 functional score is reported as -0.291 ± 0.062. In the case of T230F, the STK11 functional score is reported as 0.961 ± 0.1. L245D showed an STK11 functional score of -0.177 ± 0.17. L386A showed an STK11 functional score of 1.6 ± 0.23. F204H gave an STK11 functional score of 1.67 ± 0.41. With G408L the STK11 functional score was 1.59 ± 0.26. G408N gave an STK11 functional score of 1.54 ± 0.35. H174N showed an STK11 functional score of 0.317 ± 0.17. S213I showed an STK11 functional score of 0.902 ± 0.14. V390P showed an STK11 functional score of 1.52 ± 0.27. Work on V390T yielded an STK11 functional score of 1.59 ± 0.23. Variant L201N has an STK11 functional score of 1.19 ± 0.12. L201A gave an STK11 functional score of 1.59 ± 0.23. In the case of H154L, the STK11 functional score is reported as 0.189 ± 0.086. H154S gave an STK11 functional score of 0.47 ± 0.11. For N266T, the STK11 functional score was 0.876 ± 0.28. Variant L286F has an STK11 functional score of 0.971 ± 0.3. L286T gave an STK11 functional score of 1.12 ± 0.14. A377I gave an STK11 functional score of 1.55 ± 0.2. For G58V, the STK11 functional score was -0.308 ± 0.081. For K175Q, the STK11 functional score was 1.19 ± 0.2. For K175S, the STK11 functional score was 0.884 ± 0.23. With F219P the STK11 functional score was 0.116 ± 0.32. For F219A, the STK11 functional score was 0.528 ± 0.14. Variant F219Q has an STK11 functional score of 1.57 ± 0.25. Work on E121V yielded an STK11 functional score of 1.41 ± 0.14. Work on D350S yielded an STK11 functional score of 0.53 ± 0.49. In the case of H313G, the STK11 functional score is reported as 1.13 ± 0.29. With H313R the STK11 functional score was -0.189 ± 0.069. For H313L, the STK11 functional score was 1.48 ± 0.18. Variant I79F has an STK11 functional score of 0.321 ± 0.076. In the case of I46V, the STK11 functional score is reported as 0.613 ± 0.39. I46E showed an STK11 functional score of 1.57 ± 0.41. With T244A the STK11 functional score was 0.738 ± 0.12. In the case of K62Y, the STK11 functional score is reported as 1.31 ± 0.49. E165Q showed an STK11 functional score of 0.995 ± 0.58. Variant L55D has an STK11 functional score of 1.31 ± 0.68. With V66F the STK11 functional score was 0.608 ± 0.089. With G276R the STK11 functional score was 1.35 ± 0.18. For L117Y, the STK11 functional score was 1.55 ± 0.19. Variant E223Q has an STK11 functional score of 0.735 ± 0.22. Variant E357M has an STK11 functional score of 1.52 ± 0.29. With E357P the STK11 functional score was 1.58 ± 0.14. For Q214R, the STK11 functional score was 1.45 ± 0.14. For Q214F, the STK11 functional score was 1.04 ± 0.3. Work on K178I yielded an STK11 functional score of 0.388 ± 0.11. With L167D the STK11 functional score was -0.162 ± 0.094. G188M was tested, and the STK11 functional score was -0.0265 ± 0.12. Work on P314W yielded an STK11 functional score of 1.6 ± 0.17. M136S was tested, and the STK11 functional score was 0.0685 ± 0.09. S401G showed an STK11 functional score of 0.991 ± 0.7. M129K was tested, and the STK11 functional score was 1.35 ± 0.58. For D348S, the STK11 functional score was 1.59 ± 0.16. V114A showed an STK11 functional score of 0.829 ± 0.086. M139K showed an STK11 functional score of 1.41 ± 0.18. M139T gave an STK11 functional score of 1.18 ± 0.53. A153I was tested, and the STK11 functional score was 0.28 ± 0.27. S271V showed an STK11 functional score of 0.986 ± 0.14. With S271D the STK11 functional score was 1.64 ± 0.2. For S193H, the STK11 functional score was 0.192 ± 0.33. Work on G196R yielded an STK11 functional score of -0.0503 ± 0.77. With G15E the STK11 functional score was 1.68 ± 0.46. E145W showed an STK11 functional score of 1.41 ± 0.34. E145L was tested, and the STK11 functional score was 1.16 ± 0.17. Variant E145Y has an STK11 functional score of 1.12 ± 0.08. Variant E145Q has an STK11 functional score of 1.29 ± 0.22. Variant A316L has an STK11 functional score of 0.961 ± 0.14. With R415C the STK11 functional score was 1.25 ± 0.14. Work on R415N yielded an STK11 functional score of 1.58 ± 0.34. Work on T395R yielded an STK11 functional score of 1.58 ± 0.28. With E92Y the STK11 functional score was 1.32 ± 0.26. In the case of I424W, the STK11 functional score is reported as 0.789 ± 0.13. Work on I424N yielded an STK11 functional score of 1.44 ± 0.4. A273N gave an STK11 functional score of 1.3 ± 0.24. In the case of G61Y, the STK11 functional score is reported as 0.11 ± 0.086. G61S gave an STK11 functional score of 0.916 ± 0.13. T328S showed an STK11 functional score of 1.39 ± 0.18. With T328P the STK11 functional score was 1.57 ± 0.16. With T328R the STK11 functional score was 1.5 ± 0.25. Work on V173L yielded an STK11 functional score of 0.137 ± 0.13. T71S was tested, and the STK11 functional score was 0.618 ± 0.24. In the case of Y246R, the STK11 functional score is reported as 0.128 ± 0.28. For K124S, the STK11 functional score was 0.355 ± 0.12. Work on K124V yielded an STK11 functional score of 1.06 ± 0.11. G21R showed an STK11 functional score of 1.2 ± 0.64. With D258C the STK11 functional score was 1.16 ± 0.32. With V4S the STK11 functional score was 0.996 ± 0.14. K329G was tested, and the STK11 functional score was 1.35 ± 0.37. Work on K329N yielded an STK11 functional score of 1.36 ± 0.49.
